# Experimental data published in paper PMC10113271, “Rational peptide design for inhibition of the KIX–MLL interaction” (Scientific Reports, 2023).
# Where no end group is shown, it is not given here. The star is where a group is joined. FITC = O=C1OC2(c3ccc(O)cc3Oc3cc(O)ccc32)c2ccc(NC(=S)*)cc21; βAla = NCCC(=O)O
# B1: His-tag–GB1–MLL TAD (wild type) (peptide)
# chain: GNILPSDIMDFVLKNTPSMQALGESPESY
# notes: MLL TAD, residues 2842-2869 of human MLL; Tyr residue attached at the C-terminus for concentration determination by UV absorption; Used in ITC and immobilised in SPR; also called wild-type MLL TAD; WT; source: E. coli BL21(DE3), purified (Ni-NTA); not shown: His6, N-terminal, kept
# B2: His-tag–GB1–MLL TAD T2857A (peptide)
# chain: GNILPSDIMDFVLKNAPSMQALGESPESY
# notes: MLL TAD, residues 2842-2869 of human MLL, with the substitution; Tyr residue attached at the C-terminus for concentration determination by UV absorption; source: E. coli BL21(DE3), purified (Ni-NTA); not shown: His6, N-terminal, kept
# B3: His-tag–GB1–MLL TAD T2857Y (peptide)
# chain: GNILPSDIMDFVLKNYPSMQALGESPESY
# notes: as for B2
# B4: His-tag–GB1–MLL TAD K2855R/T2857L (peptide)
# chain: GNILPSDIMDFVLRNLPSMQALGESPESY
# notes: MLL TAD, residues 2842-2869 of human MLL, with the substitutions; Tyr residue attached at the C-terminus for concentration determination by UV absorption; also called K2855R/T2857L double mutant; source: E. coli BL21(DE3), purified (Ni-NTA); not shown: His6, N-terminal, kept
# B5: His-tag–GB1–MLL TAD T2857W (peptide)
# chain: GNILPSDIMDFVLKNWPSMQALGESPESY
# notes: MLL TAD, residues 2842-2869 of human MLL, with the substitution; Tyr residue attached at the C-terminus for concentration determination by UV absorption; Used in ITC; also called designed T2857W peptide; T2857W mutant of the MLL TAD peptide; source: E. coli BL21(DE3), purified (Ni-NTA); not shown: His6, N-terminal, kept
# B6: His-tag–GB1–MLL TAD T2857F (peptide)
# chain: GNILPSDIMDFVLKNFPSMQALGESPESY
# notes: as for B2
# B7: MLL TAD peptide D2851L without His-tag–GB1 (peptide)
# chain: GNILPSDIMLFVLKNTPSMQALGESPESY
# notes: MLL TAD, residues 2842-2869 of human MLL, with the substitution; Tyr residue attached at the C-terminus for concentration determination by UV absorption; One of the four mutants used without His-tag–GB1 in ITC as well as in CD; source: E. coli BL21(DE3), purified (Ni-NTA, thrombin digestion on the column, anion exchange); not shown: His6, N-terminal, cleaved
# B8: MLL TAD peptide K2855R without His-tag–GB1 (peptide)
# chain: GNILPSDIMDFVLRNTPSMQALGESPESY
# notes: as for B7
# B9: MLL TAD peptide T2857I without His-tag–GB1 (peptide)
# chain: GNILPSDIMDFVLKNIPSMQALGESPESY
# notes: as for B7
# B10: His-tag–GB1–MLL TAD T2857R (peptide)
# chain: GNILPSDIMDFVLKNRPSMQALGESPESY
# notes: as for B2
# B11: His-tag–GB1–MLL TAD T2857K (peptide)
# chain: GNILPSDIMDFVLKNKPSMQALGESPESY
# notes: as for B2
# B12: His-tag–GB1–MLL TAD T2857L (peptide)
# chain: GNILPSDIMDFVLKNLPSMQALGESPESY
# notes: as for B2
# B13: His-tag–GB1–MLL TAD K2855R/T2857W (peptide)
# chain: GNILPSDIMDFVLRNWPSMQALGESPESY
# notes: MLL TAD, residues 2842-2869 of human MLL, with the substitutions; Tyr residue attached at the C-terminus for concentration determination by UV absorption; also called K2855R/T2857W double mutant; source: E. coli BL21(DE3), purified (Ni-NTA); not shown: His6, N-terminal, kept
# B14: MLL TAD peptide I2849L without His-tag–GB1 (peptide)
# chain: GNILPSDLMDFVLKNTPSMQALGESPESY
# notes: as for B7
# B15: FITC-labeled c-Myb TAD peptide (peptide)
# peptide: {FITC-βAla}-GYNDEDPEKEKRIKELELLLMSTENELKGQQAL
# notes: first residue of the printed peptide; as far as I recall not a residue of c-Myb at this position; c-Myb TAD; 33 residues as printed; also called FITC-Myb; source: synthetic peptide, bought: Biologica Co
# B16: wild-type MLL TAD peptide used as inhibitor in fluorescence polarization (peptide)
# chain: GNILPSDIMDFVLKNTPSMQALGESPESY
# notes: MLL TAD, residues 2842-2869 of human MLL; Tyr residue attached at the C-terminus for concentration determination by UV absorption; also called wild-type peptide; WT; source: E. coli BL21(DE3), purified (Ni-NTA)
# B17: designed T2857W peptide used as inhibitor in fluorescence polarization (peptide)
# chain: GNILPSDIMDFVLKNWPSMQALGESPESY
# notes: MLL TAD, residues 2842-2869 of human MLL, with the substitution; Tyr residue attached at the C-terminus for concentration determination by UV absorption; also called designed peptide; source: E. coli BL21(DE3), purified (Ni-NTA)
# Biological target: T1, KIX domain of CREB-binding protein (residues 586–672 of mouse CBP) (mouse, UniProt P45481 586-672)
# T1 construct: KIX domain, residues 586-672 of mouse CBP; 6xHis-tag and thrombin cleavage site at the N-terminus; source: E. coli BL21(DE3)pLysS, purified (Ni-NTA, gel filtration on Superdex 200 pg)
# Experiment: ITC; 600 μM MLL solution titrated into the cell containing 45 µM KIX; 30 °C; 20 mM Tris–acetate pH 7.0, 50 mM NaCl; one-site binding model
# Conditions: both partners purified
# T1 sequence (P45481 586-672): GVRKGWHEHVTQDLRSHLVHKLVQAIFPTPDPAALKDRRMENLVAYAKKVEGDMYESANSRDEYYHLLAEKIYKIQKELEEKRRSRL
Binder,Kd [nM],dH [kcal/mol],stoichiometry N
B1,2020,-13.1,1.02
B2,2620,-11.8,1.03
B3,2280,-12.3,1.02
B4,1720,-9.5,1.09
B5,950,-12.8,1.02
B6,2100,-11.1,1.07
B7,4800,-8.8,1.02
B8,1500,-13.8,0.94
B9,2400,-10,1.04
B10,3000,-12.6,1.03
B11,4900,-11.7,1.02
B12,1900,-10.5,1.05
B13,1040,-12.2,1.04
B14,2800,-12.3,0.947

# Biological target: T1, KIX domain of CREB-binding protein …
# Experiment: fluorescence polarisation; 0–100 μM KIX titrated into 25 nM FITC-labeled peptide; 30 °C; 20 mM sodium phosphate pH 7.0, 100 mM NaCl, 0.005% Tween 20
# Conditions: both partners purified
row,Binder,binding result
1,B15,binds

# Biological target: T1, KIX domain of CREB-binding protein …
# Experiment: SPR; competition: mixture of KIX (5 μM) and inhibitor (0.27–200 μM) injected over immobilised His-tag–GB1–MLL TAD; 30 °C; 20 mM sodium phosphate pH 7.0, 100 mM NaCl, 0.05% Tween 20
# Conditions: both partners purified
row,Binder,IC50 [nM]
1,B1,10400
2,B5,5670

# Biological target: T1, KIX domain of CREB-binding protein …
# Experiment: SPR; His-tag–GB1–MLL TAD immobilised on CM5 by amine coupling (77.9 RU); KIX 0.04–30 μM injected; 30 °C; 20 mM sodium phosphate pH 7.0, 100 mM NaCl, 0.05% Tween 20; equilibrium analysis
# Conditions: both partners purified
row,Binder,Kd [nM]
1,B1,4940

# Biological target: T1, KIX domain of CREB-binding protein …
# Experiment: fluorescence polarisation; competition: inhibitor (0–200 μM) titrated into a mixture of KIX (2 μM) and FITC-MLL (25 nM); 30 °C; 20 mM sodium phosphate pH 7.0, 100 mM NaCl, 0.005% Tween 20
# Conditions: both partners purified
row,Binder,IC50 [nM]
1,B16,7100
2,B17,3480

# Biological target: T1, KIX domain of CREB-binding protein …
# Experiment: fluorescence polarisation; competition: inhibitor (0–200 μM) titrated into a mixture of KIX (2 μM) and FITC-Myb (25 nM); 30 °C; 20 mM sodium phosphate pH 7.0, 100 mM NaCl, 0.005% Tween 20
# Conditions: both partners purified
row,Binder,IC50 [nM]
1,B16,36000
2,B17,16000
